# Data reported in paper PMC5843802, “DATATOC: a novel conjugate for kit-type ^68Ga labelling of TOC at ambient temperature” (EJNMMI Radiopharmacy and Chemistry, 2016).
# Format: physicochemical
# Protocol: The lipophilicity was determined using the shake-flask method (logP) and qualitatively by radio-HPLC relative to ^68Ga-DOTATOC (Notni et al. [2013]; Du et al. [1998]). Radiolabels were prepared following acetone-PP. Analytical radio-HPLC (LiChrospher 100-RP-18EC, 1 mL/min) for lipophilicity studies was based on a gradient using H2O (A) and MeCN (B), each containing 0.1 % TFA. Mobile phase gradient: 0–1.5 min 1 % B, 1.5–10.5 min 99 % B, 11.5 min 99 % B, 12–15 min 1 % B. The HPLC was coupled to a UV (Hitachi L-7400) and a radioactivity (Gamma Raytest) detection system. HPLC grade solvents were used and degassed by sonication for 15–20 min prior to use.
smiles,measurement,value
"C[C@@H](O)[C@@H]1NC(=O)[C@H](CCCCN)NC(=O)[C@@H](Cc2c[nH]c3ccccc23)NC(=O)[C@H](Cc2ccc(O)cc2)NC(=O)[C@@H](NC(=O)[C@@H](Cc2ccccc2)NC(=O)CN2CCN(CC(=O)O)CCN(CC(=O)O)CCN(CC(=O)O)CC2)CSSC[C@@H](C(=O)N[C@H](CO)[C@@H](C)O)NC1=O [^68Ga-DOTATOC, metal not drawn]",radio-HPLC retention time (tR) as measure of lipophilicity,10.3 min
